Patent publication US20260069689A1 (Regeneron, published 2026)
Residue numbers refer to the chain shown, from its start.

B1: mAb14255 (antibody, V domains shown)
VH: QVQLQESGPGLVKPSETLSLTCTVSGGSISGYYWSWIRQPPGKGLDWIGYIYYRGNTNYNPSLKSRVTISVDTSNNQFSLKLSSVTAADTAVYYCARYGEGYGDASGYHFDYWGQGTLVTVSS
VL: QSALTQPASVSGSPGQSITISCTGTSSDVGSYNLVSWYQQHPGKAPKLMIYEDSKRPSGVANPFSGSKSGNTASLTISGLQAEDEADYYCSSYAGSSTWVFGGGTKLTVLG
B2: mAb14258 (antibody, V domains shown)
VH: QLQLQESGPGLVKPSETLSLICTGSGDSISSSHYYWGWIRQPPGKGLEWIGSTYFSGSTYYNPSLKSRVSISVDTSKNQVSLKLISVTAADTAVYYCAREMGATLGDYWGPGTLVTVSS
VL: QSVLTQPPSASGTPGQRVTISCSGSSSNIGNNYVYWYQQFPGTTPRLLIYRNNERPSGVPDRFSGSKSGTSASLVISGLRSEDEADYYCAAWDDSLSAHYVFGTGTKVTVLG
B3: mAb14257 (antibody, V domains shown)
VH: EVQLVESGGGLVQPGGSLRLSCAASGFTVSRSYMNWVRQAPGKGLEWVSVVFTGGTTKHTDSVKGRFTISRDNSMNTLYLQMNSLRPEDTAVYYCARVAIVETTGAFDIWGQGTMVTVSS
VL: QSVLTQPPSVSGAPGQRVTISCTGTSSNIGADFDVHWYQQFPGTAPKLLIYGHTNRPSGIPDRFSGSKSGTSASLAITGLQAEDEADYYCQSYDSSLSGSVVFGGGTKLTVLG
B4: mAb14283 (antibody, V domains shown)
VH: QVQLQESGPGLVKPSGTLSLTCDVSGGSISSNNWWSWVRQRPGKGLQWIGEIYHNENTNYNPSLKSRVIMSIDKSKNQFSLKLTSVTAADTAVYYCARGDVLDWFDPWGQGTLVTVSS
VL: QSALTQPASVSGSPGQSTTISCTGTSSDVGGYNYVSWYQQYPGKAPKLMIYDVTNRPSGVSHRFSGSKSGNTASLTISGLQAEDEADYYCSSYTSSSTVIFGGGTKLTVLG
B5: mAb14289 (antibody, V domains shown)
VH: QVQLVQSGPEVKKPGASVKVSCKASGYTFTSYAISWVRQAPGQGLEWMGWISAYNGNTNYAQKLQGRVTMTTDTFTSTAYMELRSLRSDDTAVYYCAVPADHITFDYWGQGTLVTVSS
VL: EIVLTQSPGTLSLSPGERATLSCRASQSVSSYLAWYQQKPGQAPRLLIHGASSRATGIPDRFSGSGSGTDFTLTISRLEPEDFAVYYCQQYGSSFLTFGGGTKVEIKR
B6: mAb13458 (antibody, V domains shown)
VH: EVQLVESGGGLVQPGRSLRLSCAASGFTFDDYAMHWVRQAPGKGLEWVSGISWNSGSIGYADSVKGRFTISRDNAKNSLYLQMNSLRAEDTALYYCAKDIGITTPYWGQGTLVTVSS
VL: AIQMTQSPSSLSASVGDRVTITCRASQDIRNDLGWYQQKPGKAPKLLIYSASSLQTGVPSRFSGSGSGTDFTLTISSLHPEDFATYYCLQDYWYTWTFGQGTKVEIKR
B7: mAb13459 (antibody, V domains shown)
VH: B6 VH
VL: B6 VL with W93N, T95V
B8: mAb14290 (antibody)
heavy: not shown
light: EIVLTQSPGTLSLSPGERATLSCRASQSVNNNYLAWYQQKPGQTPRLLIYGASSRATGIPDRFSGSGSGTDFTLTITRLEPEDFAVYHCQQYGRSPTTFGQGTRLEIKRTVAAPSVFIFPPSDEQLKSGTASVVCLLNNFYPREAKVQWKVDNALQSGNSQESVTEQDSKDSTYSLSSTLTLSKADYEKHKVYACEVTHQGLSSPVTKSFNRGEC
B9: mAb14259 (antibody)
heavy: not shown
light: DIVMTQSPLSLPVTPGEPASISCRSSQTLLHSNGYNYLDWYLQKPGQSPQLLIHLGSNRASGVPDRFSGSGSVTDFTLKISRVEAEDVGVYYCMQALQTPYTFGQGTKLEIKRTVAAPSVFIFPPSDEQLKSGTASVVCLLNNFYPREAKVQWKVDNALQSGNSQESVTEQDSKDSTYSLSSTLTLSKADYEKHKVYACEVTHQGLSSPVTKSFNRGEC
B10: mAb14291 (antibody)
heavy: not shown
light: B9 light with T28S, L38I, D39N, I53M, H54Y, V73G, F76S, V88A, A96T, L97R
B11: mAb14313 (antibody, V domains shown)
VH: EVQLVESGGGLVQPGRSLRLSCVASGFTFDDSAMHWVRQPPGKGLEWVSGISWNSGIIGYAESVKGRFIISRDNAKNSLFLHMRGLRPEDTAVYYCARDRLELSYYYYGMDVWGQGTTVTVSS
VL: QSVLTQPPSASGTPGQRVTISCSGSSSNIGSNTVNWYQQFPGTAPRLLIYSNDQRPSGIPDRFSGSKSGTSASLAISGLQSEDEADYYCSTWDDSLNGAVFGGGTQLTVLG
B12: mAb14315 (antibody, V domains shown)
VH: QVQLVQSGAEVKKPGSSVKVSCKASGDTFSTYAINWVRQAPGQGLEWMGRFIHIFGTANYAQKFQGRVTITADESTSTAYMELRSLRSEDTAVYYCARDGVDYGDYRPDYWGQGTLVTVSS
VL: EIVLTQSPGTLSLSPGERATLSCRASQSVSSNYLAWYQQKPGQAPRLLIYGASSRATGIPERFSGSGSGTDFTLTISRLEPEDFAVYYCQQYGSSLYTFGQGTKLEIKR
B13: mAb14287 (antibody)
heavy: not shown
light: QSALTQPASVSGSPGQSITISCTGTSSDVGSYNLVSWYQQHPGKAPKLMIYEVSKRPSGVSNRFSGSKSGNTASLTISGLQAEDEADYYCSSYAGSRREVFGGGTKLTVLGQPKAAPSVTLFPPSSEELQANKATLVCLISDFYPGAVTVAWKADSSPVKAGVETTTPSKQSNNKYAASSYLSLTPEQWKSHRSYSCQVTHEGSTVEKTVAPTECS
B14: mAb14247 (antibody, V domains shown)
VH: QITLKESGPTLVKPTQTLTLTCTFSGFSLSTSAVGVGWIRQPPGKALEWLALIYWDDDKRYSPSLKSRLTITKDTSKNQLVLTMTNVDPVDTATYYCAHHTIQLIFDYWGQGTLVTVSS
VL: QSALTQPASVSGSPGQSITISCTATSSDVGNYNYVSWYQQHPGKAPKLMIYEVSNRPSGVSNRFSGSKSGNTASLTISGLQAEDEADYYCSSYTSSSTPLVFGGGTKLTVLG
B15: mAb14233 (antibody)
heavy: not shown
light: SYELTQPPSVSVSPGQTARITCSGDVLAKLYAYWYQHKPGQAPVLVIYKDSERPSGIPERFSGSSSGTTVTLTISGVQAEDEADYYCQSADSSGSLWVFGGGTKLTVLGQPKAAPSVTLFPPSSEELQANKATLVCLISDFYPGAVTVAWKADSSPVKAGVETTTPSKQSNNKYAASSYLSLTPEQWKSHRSYSCQVTHEGSTVEKTVAPTECS
B16: mAb14288 (antibody)
heavy: not shown
light: QSVLTQPPSVSAAPGQKVTISCSGSSSNIGNNYVSWYQQLPGTAPKLLIYENNKRPSGIPDRFSGSKSGTSATLGITGLQTGDEADYYCGTWDSSLSAGQGVFGGGTKLTVLGQPKAAPSVTLFPPSSEELQANKATLVCLISDFYPGAVTVAWKADSSPVKAGVETTTPSKQSNNKYAASSYLSLTPEQWKSHRSYSCQVTHEGSTVEKTVAPTECS
B17: mAb14284 (antibody, V domains shown)
VH: QITLKESGPTLVKPTQTLTLTCTFSGFSFSTSGVGVGWIRQPPGKTLEWLALIYWDDDKRYSPSLKSRLTITKDTSKNQVVLTMTNMDPVDTATYFCAHHGIPTIFGYWGQGALVTVSS
VL: QSALTQPASVSGSPGQSITISCTGTSSDLGVFNYVSWYQQHPGKAPKLMIYEVTNRPSGVSNRFSGSKSGNTASLTISGLQAEDEADYYCSSYTTSSTVFGGGTKLTVLG
B18: mAb14235 (antibody, V domains shown)
VH: QITLKESGPTLVKPTQTLTLTCTFSGFSLNTGGVGVGWIRQPPGNALEWLALIYWDDDKRYNPSLKTRLTISKDTSKNQVVLTMTNMDPVDTATYFCAHLTIAVIVDFWGQGTLVTVSS
VL: B17 VL with G24A, L29V, V31T, F32Y, Y38F, Q40H, S96T, T98I
B19: mAb14294 (antibody, V domains shown)
VH: EVQLVESGGGLVQPGGSLRLSCAASGFTFSNHWMDWVRQAPGKGLVWVSRINSDGSSTDYADSVRGRFTMSRDNAKNTLYLQMSSLRAEDTAVYYCAREGMIFGAVIIPGWYFDLWGRGALVTVSS
VL: EIVLTQSPGTLSLSPGERATLSCRASQSVSSSQLAWYQQKPGQAPRLLIYGASSRATGIPDRFSGSGSGTDFTLTISRLEPEDFAVYYCQQYDSFGQGTKLEIKR

Experiments:
[1] = molecular target: SARS-COV-2 RBD extracellular domain expressed with a C-terminal myc-myc-hexahistidine tag (SARS-CoV-2); experiment: SPR (Biacore), mAb captured by anti-human Fc, RBD-mmH in solution, 25 C
[2] = molecular target: human FcγR3a 176Val allotype receptor (human, UniProt P08637 17-254); experiment: cell-based or functional assay

Binder	Kd [1] [nM]	koff [1] [s⁻¹]	kon [1] [M⁻¹ s⁻¹]	t½ [1] [min]	EC50 (M), Jurkat/CD20/spike [2] [M]	Fold induction, Jurkat CD20 [2] [fold]	Fold induction, Jurkat/CD20/spike [2] [fold]
B1	2.84	0.00499	1.75e+06	2.3	–	–	–
B2	0.854	0.00161	1.89e+06	7.2	–	–	–
B3	2.8	0.00952	3.4e+06	1.2	–	–	–
B4	1.08	0.00158	1.46e+06	7.3	–	–	–
B5	1.36	0.00158	1.16e+06	7.3	–	–	–
B6	1.53	0.00139	909000	8.3	–	–	–
B7	2.51	0.00174	693000	6.6	–	–	–
B8	–	–	–	–	3.42e-09	1	9.5
B9	–	–	–	–	3.94e-10	1	8.7
B10	–	–	–	–	3.02e-10	1.1	9.7
B11	1.53	0.00217	1.42e+06	5.3	–	–	–
B12	2.49	0.00102	407000	11.4	–	–	–
B13	–	–	–	–	1.23e-09	1	6.2
B14	1.94	0.00163	838000	7.1	–	–	–
B15	–	–	–	–	2.8e-10	1.1	11
B16	–	–	–	–	5.1e-10	1	6.7
B17	0.824	0.000549	666000	21	–	–	–
B18	1.33	0.00105	789000	11	–	–	–
B19	0.914	0.000548	600000	21.1	–	–	–
